US7981423B2, “Rage fusion proteins” (Transtech Pharma, Inc., priority 2004, dated 2011)

Test system: APP transgenic mice
Experiment: Mouse model of AD (APP transgenic mice)
Format: in vivo
Experimental: Experiments were performed to evaluate whether TTP-4000 could affect amyloid formation and cognitive dysfunction in a mouse model of AD. The experiments utilized transgenic mice expressing the human Swedish mutant amyloid precursor protein (APP) under the control of the PDGF-B chain promoter. Over time, these mice generate high levels of the RAGE ligand, amyloid beta (Aβ).
The APP mice (male) used in this experiment were designed by microinjection of the human APP gene (with the Swedish and London mutations) into mouse eggs under the control of the platelet-derived growth factor B (PDGF-B) chain gene promoter. The mice were generated on a C57BL/6 background and were developed by Molecular Therapeutics Inc. Animals were fed ad libituin and maintained by brother sister mating. The mice generated from this construct develop amyloid deposits starting at 6 months of age. Animals were aged for 6 months and then maintained for 90 days and sacrificed for amyloid quantification.
APP transgenic mice were administered vehicle or TTP4000 every other day [qod (i.p.)] for 90 days starting at 6 months of age. At the end of the experiment, animals were sacrificed and examined for AP plaque burden in the brain (i.e., plaque number). A 6-month control APP group was used to determine the baseline of amyloid deposits. In addition, at the end of the study, the animals were subjected to behavioral (Morris water maze) analysis. The investigators were blinded to the study compounds. Samples were given to the mice at 0.25 ml/mouse/every other day.
For histological examination, the animals were anesthetized with an intraperitoneal injection (IP) of sodium pentobarbital (50 mg/kg). The animals were transcardially perfused with 4° C., phosphate-buffered saline (PBS) followed by 4% paraformaldehyde. The brains were removed and placed in 4% paraformaldehyde over night. The brains were processed to paraffin and embedded. Ten serial 30-μm thick sections through the brain were obtained. Sections were subjected to primary antibody overnight at 4° C. (Aβ peptide antibody) in order to detect the amyloid deposits in the brain of the transgenic animals (Guo et al., J. Neurosci., 22:5900-5909 (2002)). Sections were washed in Tris-buffered saline (TBS) and secondary antibody was added and incubated for 1 hour at room temperature. After washing, the sections were incubated as instructed in the Vector ABC Elite kit (Vector Laboratories) and stained with […] (DAB). The reactions were stopped in water and cover-slipped after treatment with xylene. The amyloid area in each section was determined with a computer-assisted image analysis system, consisting of a Power Macintosh computer equipped with a Quick Capture frame grabber card, Hitachi CCD camera mounted on an Olympus microscope and camera stand. NIH Image Analysis Software, v. 1.55 was used. The images were captured and the total area of amyloid was determined over the ten sections. A single operator blinded to treatment status performed all measurements. Summing the amyloid volumes of the sections and dividing by the total number of sections was done to calculate the amyloid volume.
For quantitative analysis, an enzyme-linked immunosorbent assay (ELISA) was used to measure the levels of human total Aβ, Aβtotal and Aβ1-42 in the brains of APP transgenic mice (Biosource International., Camarillo, Calif.). Aβtotal and Aβ1-42 were extracted from mouse brains by guanidine hydrochloride and quantified as described by the manufacturer. […]

B1: TTP-4000: four domain RAGE fusion protein (SEQ ID NO: 32): human RAGE amino acids 1-251 linked to CH2 and CH3 domains of human IgG (protein)
chain: MAAGTAVGAWALVLSLWGAVVGAQNITARIGEPLVLKCKGAPKKPPQRLEWKLNTGRTEAWKVLSPQGGGPWDSVARVLPNGSLFLPAVGIQDEGIFRCQAMNRNGKETKSNYRVRVYQIPGKPEIVDSASELTAGVPNKVGTCVSEGSYPAGTLSWHLDGKPLVPNEKGVSVKEQTRRHPETGLFTLQSELMVTPARGGDPRPTFSCSFSPGLPRHRALRTAPIQPRVWEPVPLEEVQLVVEPEGGAVAPPSVFLFPPKPKDTLMISRTPEVTCVVVDVSHEDPEVKFNWYVDGVEVHNAKTKPREEQYNSTYRVVSVLTVLHQDWLNGKEYKCKVSNKALPAPIEKTISKAKGQPREPQVYTLPPSRDELTKNQVSLTCLVKGFYPSDIAVEWESNGQPENNYKTTPPVLDSDGSFFLYSKLTVDKSRWQQGNVFSCSVMHEALHNHYTQKSLSLSPGK
inflammatory cytokines IL-1 and TNF-α (data not shown): can reduce
Aβ plaques in the brain (treated for 3 months, versus vehicle and human IgG1, FIG. 14A): fewer Aβ plaques
cognitive dysfunction (Morris water maze) (treated for 3 months, versus vehicle and human IgG1, FIG. 14B): less cognitive dysfunction
